# Measured values from patent US20070160981A1 (priority 2005, published 2007).
# Values joined by “and” are separate entries in the source; they are usually repeats but may differ in a detail not shown here. Identical values can stand only once.
# Experiments:
# [1] = target: SARS-CoV PLP2 (Severe acute respiratory syndrome coronavirus, UniProt P0C6U8)
# [2] = test system: T1, 9-mer oligopeptide FRLKGGAPI
# T1 sequence: FRLKGGAPI
# [3] = test system: 12-mer oligopeptide […] containing the Gly818-Ala819 cleavage site
# [4] = test system: T2, 8-mer oligopeptide LKGGAPIK
# T2 sequence: LKGGAPIK
# [5] = test system: T3, 10-mer oligopeptide RLKGGAPIKG (five P residues, five P′ residues)
# T3 sequence: RLKGGAPIKG
# [6] = test system: T4, 14-mer Gly818-Ala819 site-containing oligopeptide VFRLKGGAPIKGVT
# T4 sequence: VFRLKGGAPIKGVT
# [7] = test system: T5, 12-mer oligopeptide ISLKGGKIVSTC containing the Gly2740-Lys2741 cleavage site
# T5 sequence: ISLKGGKIVSTC
# [8] = test system: T6, 16-mer Gly818-Ala819 site-containing oligopeptide NVFRLKGGAPIKGVTF
# T6 sequence: NVFRLKGGAPIKGVTF
# [9] = test system: BCoV 12-mer peptide substrate (P6-P1′ FSLKGGA)
# [10] = test system: MHV 12-mer peptide substrate (P6-P1′ FSLKGGA)
# [11] = test system: T7, 12-mer oligopeptide RELNGGAVTRYV containing the Gly180-Ala181 cleavage site
# T7 sequence: RELNGGAVTRYV
# [12] = test system: T8, 18-mer Gly818-Ala819 site-containing oligopeptide NNVFRLKGGAPIKGVTFG
# T8 sequence: NNVFRLKGGAPIKGVTFG
# [13] = test system: T9, 10-mer oligopeptide FRLKGGAPIK (six P residues, four P′ residues)
# T9 sequence: FRLKGGAPIK
# [14] = test system: T10, 11-mer Gly818-Ala819 site-containing oligopeptide VFRLKGGAPIK
# T10 sequence: VFRLKGGAPIK
# [15] = test system: Fluorogenic peptide substrate Abz-[…]-EDDNP
substance,measurement,setting,value
RELNGGAVTRYV [Gly180-Ala181],Cleavage % 12 hours,[1],5 ± 1%
same,percentage of the cleavage after 12 hours of digestion,[1],5%
"SARS-CoV papain-like protease 2 (SARS-CoV PLP2), residues 1414-1858 of pp1a, N-terminal 6xHis tag","Cleavage %, 2 hours",[2],36.2%
same,"Cleavage %, 12 hours",[2],85.1%
same,"Cleavage %, 2 h",[3],70.1%
same,"Cleavage %, 2 hours",[3],70% and 70.1%
same,"Cleavage %, 12 h",[3],100%
same,"Cleavage %, 12 hours",[3],100%
same,"Cleavage %, 2 hours",[4],11.4%
same,"Cleavage %, 12 hours",[4],44.7%
same,"Cleavage %, 2 hours",[5],14.8%
same,"Cleavage %, 12 hours",[5],56.4%
same,"Cleavage %, 2 hours",[6],67.6%
same,"Cleavage %, 12 hours",[6],100%
same,"Cleavage %, 2 hours",[7],7%
same,"Cleavage %, 12 hours",[7],29%
same,"Cleavage %, 2 hours",[8],63%
same,"Cleavage %, 12 hours",[8],100%
same,"Cleavage %, 2 hours",[9],27%
same,"Cleavage %, 12 hours",[9],85%
same,"Cleavage %, 2 hours",[10],21%
same,"Cleavage %, 12 hours",[10],80%
same,"Cleavage %, 12 hours",[11],5%
same,"Cleavage %, 2 hours",[12],60.5%
same,"Cleavage %, 12 hours",[12],100%
same,"Cleavage %, 2 hours",[13],49.9%
same,"Cleavage %, 12 hours",[13],100%
same,"Cleavage %, 2 hours",[14],52.9%
same,"Cleavage %, 12 hours",[14],100%
same,Kcat/Km (µM^-1min^-1) at pH 5.25,[15],0.06 µM^-1min^-1
same,Kcat/Km (µM^-1min^-1) at pH 6.05,[15],0.17 µM^-1min^-1
same,Kcat/Km (µM^-1min^-1) at pH 6.82,[15],0.31 µM^-1min^-1
same,Kcat/Km (µM^-1min^-1) at pH 7.42,[15],0.27 µM^-1min^-1
same,Kcat/Km (µM^-1min^-1) at pH 8.01,[15],0.3 µM^-1min^-1
same,Kcat/Km (µM^-1min^-1) at pH 8.65,[15],0.3 µM^-1min^-1
same,Kcat/Km (µM^-1min^-1) at pH 9.20,[15],0.21 µM^-1min^-1
same,Kcat/Km (µM^-1min^-1) at pH 9.80,[15],0.08 µM^-1min^-1
same,Km (µM) at pH 5.25,[15],21.4 µM
same,Km (µM) at pH 6.05,[15],64 µM
same,Km (µM) at pH 6.82,[15],65.5 µM
same,Km (µM) at pH 7.42,[15],77.2 µM
same,Km (µM) at pH 8.01,[15],72 µM
same,Km (µM) at pH 8.65,[15],71.5 µM
same,Km (µM) at pH 9.20,[15],68 µM
same,Km (µM) at pH 9.80,[15],70.5 µM
same,kcat (min^-1) at pH 5.25,[15],1.37 min^-1
same,kcat (min^-1) at pH 6.05,[15],11.9 min^-1
same,kcat (min^-1) at pH 6.82,[15],20.6 min^-1
same,kcat (min^-1) at pH 7.42,[15],19.8 min^-1
same,kcat (min^-1) at pH 8.01,[15],21.9 min^-1
same,kcat (min^-1) at pH 8.65,[15],22 min^-1
same,kcat (min^-1) at pH 9.20,[15],14.1 min^-1
same,kcat (min^-1) at pH 9.80,[15],5.99 min^-1
same,pH-independent kcat value (constant C from the pH-Log kcat plot),[15],25.4±3.43 min^-1
same,pH-independent kcat/Km value (constant C from the pH-Log (kcat/Km) plot),[15],0.31±0.02 min^-1µM^-1
same,true Km value,[15],corrected to 82 µM
